{"source": "paper PMC12440807", "biological_target": "RNA polymerase II;RECQL5;CSB;CSA-DDB1;UVSSA;ELOF1 (Sus scrofa domesticus?;Homo …, UniProt A0A8D1DPV6;A0A0B8RVL1;P19387;O15514;I3LSI7;P61218;P62487;P52434;P36954;P52435;P6 …, |||||)", "assay": "cryo-EM; 1 mM ADP; phosphorylated Pol II; glutaraldehyde cross-linked; 3.5 A; EMSA: 20 mM HEPES pH 7.5, 66 mM NaCl, 5% glycerol, 1 mM DTT, 0.25 mg/ml BSA, on ice 30 min; 6% gel, 0.5x TBE, 4 C", "conditions": "protein: native;recombinant;recombinant;recombinant;recombinant;recombinant; copies: 1;1;1;1;1;1;1;1;1;1;1;1;1;1;1;1;1;1; 15-nt mismatch bubble; RNA 45 nt, 3' end hybridized to template", "data": [{"binder": "EC-TCR DNA-RNA scaffold (mixed) DNA 1: CGCTCTGCTCCTTCTCCCATCCTCTCGATGGCTATGAGATCAACTAG DNA 2: CTAGTTGATCTCATATTTCATTCCTACTCAGGAGAAGGAGCAGAGCG RNA: ACAUCAUAACAUUUGAACAAGAAUAUAUAUACAAAAUCGAGAGGA", "values": [{"measurement": "binding result", "result": "binds"}]}]}
